B1: Mothers against decapentaplegic homolog 4 (Homo sapiens), Q13485 (parent)
chain: MDNMSITNTPTSNDACLSIVHSLMCHRQGGESETFAKRAIESLVKKLKEKKDELDSLITAITTNGAHPSKCVTIQRTLDGRLQVAGRKGFPHVIYARLWRWPDLHKNELKHVKYCQYAFDLKCDSVCVNPYHYERVVSPGIDLSGLTLQSNAPSSMMVKDEYVHDFEGQPSLSTEGHSIQTIQHPPSNRASTETYSTPALLAPSESNATSTANFPNIPVASTSQPASILGGSHSEGLLQIASGPQPGQQQNGFTGQPATYHHNSTTTWTGSRTAPYTPNLPHHQNGHLQHHPPMPPHPGHYWPVHNELAFQPPISNHPAPEYWCSIAYFEMDVQVGETFKVPSSCPIVTVDGYVDPSGGDRFCLGQLSNVHRTEAIERARLHIGKGVQLECKGEGDVWVRCLSDHAVFVQSYYLDREAGRAPGDAVHKIYPSAYIKVFDLRQCHRQMQQQAATAQAAAAAQAAAVAGNIPGPGSVGGIAPAISLSAAAGIGVDDLRRLCILRMSFVKGWGPDYPRQSIKETPCWIEIHLHRALQLLDEVLHTMPIADPQPLD
partner: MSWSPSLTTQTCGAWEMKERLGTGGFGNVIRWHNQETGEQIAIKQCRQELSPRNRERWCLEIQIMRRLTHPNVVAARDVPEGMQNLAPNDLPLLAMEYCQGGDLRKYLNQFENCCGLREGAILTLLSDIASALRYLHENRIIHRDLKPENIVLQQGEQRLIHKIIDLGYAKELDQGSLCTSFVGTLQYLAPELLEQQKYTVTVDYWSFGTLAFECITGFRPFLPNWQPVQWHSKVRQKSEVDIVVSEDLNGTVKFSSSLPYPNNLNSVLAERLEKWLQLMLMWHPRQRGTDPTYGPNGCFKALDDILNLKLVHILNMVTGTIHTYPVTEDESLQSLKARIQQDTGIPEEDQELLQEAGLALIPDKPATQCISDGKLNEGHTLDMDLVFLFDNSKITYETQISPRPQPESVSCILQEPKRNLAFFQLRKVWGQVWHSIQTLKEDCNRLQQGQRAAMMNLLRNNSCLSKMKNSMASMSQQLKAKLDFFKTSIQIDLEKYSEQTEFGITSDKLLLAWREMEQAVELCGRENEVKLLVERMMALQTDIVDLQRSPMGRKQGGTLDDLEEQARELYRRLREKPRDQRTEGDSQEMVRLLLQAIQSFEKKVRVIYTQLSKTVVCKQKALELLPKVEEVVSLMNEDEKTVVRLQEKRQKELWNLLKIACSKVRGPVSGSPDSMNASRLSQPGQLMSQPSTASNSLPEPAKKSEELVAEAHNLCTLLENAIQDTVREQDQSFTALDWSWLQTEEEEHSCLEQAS
B2: Mothers against decapentaplegic homolog 4 (Homo sapiens), Q13485 (parent)
chain: B1 chain
partner: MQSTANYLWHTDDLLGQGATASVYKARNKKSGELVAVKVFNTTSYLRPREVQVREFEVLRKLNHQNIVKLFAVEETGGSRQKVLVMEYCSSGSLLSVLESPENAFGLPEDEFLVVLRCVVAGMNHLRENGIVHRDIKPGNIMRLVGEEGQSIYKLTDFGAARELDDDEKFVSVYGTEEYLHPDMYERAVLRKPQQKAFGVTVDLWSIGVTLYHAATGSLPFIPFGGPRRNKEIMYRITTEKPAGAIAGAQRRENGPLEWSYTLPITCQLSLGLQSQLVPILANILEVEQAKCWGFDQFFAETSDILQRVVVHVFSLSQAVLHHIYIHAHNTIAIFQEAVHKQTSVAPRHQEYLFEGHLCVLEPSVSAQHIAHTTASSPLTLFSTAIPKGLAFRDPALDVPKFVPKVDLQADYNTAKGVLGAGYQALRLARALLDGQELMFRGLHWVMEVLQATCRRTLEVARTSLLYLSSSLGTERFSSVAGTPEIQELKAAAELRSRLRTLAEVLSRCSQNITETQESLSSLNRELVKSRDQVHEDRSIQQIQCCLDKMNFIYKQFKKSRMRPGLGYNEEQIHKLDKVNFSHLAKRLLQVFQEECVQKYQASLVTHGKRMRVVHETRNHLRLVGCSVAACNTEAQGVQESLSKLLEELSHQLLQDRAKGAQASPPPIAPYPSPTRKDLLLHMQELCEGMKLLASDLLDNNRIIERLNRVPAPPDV
B3: Mothers against decapentaplegic homolog 4 (Homo sapiens), Q13485 (parent)
chain: B1 chain
partner: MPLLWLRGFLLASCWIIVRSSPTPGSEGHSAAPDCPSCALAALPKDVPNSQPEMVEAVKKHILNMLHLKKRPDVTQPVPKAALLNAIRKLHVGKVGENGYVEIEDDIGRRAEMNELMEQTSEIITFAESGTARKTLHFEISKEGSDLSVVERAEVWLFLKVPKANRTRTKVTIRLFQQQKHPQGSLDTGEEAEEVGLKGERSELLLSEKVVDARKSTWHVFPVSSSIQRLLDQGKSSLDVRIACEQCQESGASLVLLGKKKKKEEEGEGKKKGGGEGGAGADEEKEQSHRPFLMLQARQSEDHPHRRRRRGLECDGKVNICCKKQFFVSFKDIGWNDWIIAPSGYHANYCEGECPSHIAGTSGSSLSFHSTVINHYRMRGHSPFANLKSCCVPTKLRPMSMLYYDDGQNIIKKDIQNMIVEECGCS
B4: Mothers against decapentaplegic homolog 4 (Homo sapiens), Q13485 (parent)
chain: B1 chain
partner: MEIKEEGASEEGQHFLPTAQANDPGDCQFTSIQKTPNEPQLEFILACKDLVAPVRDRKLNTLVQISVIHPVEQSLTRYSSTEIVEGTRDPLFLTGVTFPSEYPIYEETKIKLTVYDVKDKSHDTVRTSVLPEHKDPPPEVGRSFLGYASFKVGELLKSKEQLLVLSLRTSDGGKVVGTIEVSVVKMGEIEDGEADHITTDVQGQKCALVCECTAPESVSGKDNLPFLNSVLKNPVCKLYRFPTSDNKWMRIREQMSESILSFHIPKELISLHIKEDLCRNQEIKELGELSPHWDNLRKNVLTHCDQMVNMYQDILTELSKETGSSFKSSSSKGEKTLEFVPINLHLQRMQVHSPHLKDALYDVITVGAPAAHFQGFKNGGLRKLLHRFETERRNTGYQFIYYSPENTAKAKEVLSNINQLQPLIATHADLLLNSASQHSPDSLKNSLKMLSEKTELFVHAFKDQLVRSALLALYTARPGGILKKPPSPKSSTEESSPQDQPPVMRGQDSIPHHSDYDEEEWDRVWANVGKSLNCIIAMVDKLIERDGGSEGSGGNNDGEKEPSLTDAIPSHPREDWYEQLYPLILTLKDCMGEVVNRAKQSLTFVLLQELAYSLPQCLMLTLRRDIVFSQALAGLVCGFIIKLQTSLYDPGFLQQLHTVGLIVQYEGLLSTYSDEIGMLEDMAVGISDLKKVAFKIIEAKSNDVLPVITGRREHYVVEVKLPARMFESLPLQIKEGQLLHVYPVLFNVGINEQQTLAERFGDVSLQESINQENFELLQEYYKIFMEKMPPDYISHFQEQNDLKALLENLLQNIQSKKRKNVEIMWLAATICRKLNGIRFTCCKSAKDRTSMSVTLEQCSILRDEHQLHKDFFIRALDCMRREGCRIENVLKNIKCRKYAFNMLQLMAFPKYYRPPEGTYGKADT
B5: Mothers against decapentaplegic homolog 4 (Homo sapiens), Q13485 (parent)
chain: B1 chain
partner: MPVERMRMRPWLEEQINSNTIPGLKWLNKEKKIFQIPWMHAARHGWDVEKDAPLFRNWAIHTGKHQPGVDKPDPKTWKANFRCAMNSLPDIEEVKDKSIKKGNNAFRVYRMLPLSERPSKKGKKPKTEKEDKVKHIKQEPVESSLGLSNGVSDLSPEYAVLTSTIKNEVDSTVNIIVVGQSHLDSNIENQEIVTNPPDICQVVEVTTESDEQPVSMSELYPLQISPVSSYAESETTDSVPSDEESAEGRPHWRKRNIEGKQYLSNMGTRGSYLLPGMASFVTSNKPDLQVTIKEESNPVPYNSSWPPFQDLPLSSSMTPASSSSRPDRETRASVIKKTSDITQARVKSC
B6: Mothers against decapentaplegic homolog 4 (Homo sapiens), Q13485 (parent)
chain: B1 chain
partner: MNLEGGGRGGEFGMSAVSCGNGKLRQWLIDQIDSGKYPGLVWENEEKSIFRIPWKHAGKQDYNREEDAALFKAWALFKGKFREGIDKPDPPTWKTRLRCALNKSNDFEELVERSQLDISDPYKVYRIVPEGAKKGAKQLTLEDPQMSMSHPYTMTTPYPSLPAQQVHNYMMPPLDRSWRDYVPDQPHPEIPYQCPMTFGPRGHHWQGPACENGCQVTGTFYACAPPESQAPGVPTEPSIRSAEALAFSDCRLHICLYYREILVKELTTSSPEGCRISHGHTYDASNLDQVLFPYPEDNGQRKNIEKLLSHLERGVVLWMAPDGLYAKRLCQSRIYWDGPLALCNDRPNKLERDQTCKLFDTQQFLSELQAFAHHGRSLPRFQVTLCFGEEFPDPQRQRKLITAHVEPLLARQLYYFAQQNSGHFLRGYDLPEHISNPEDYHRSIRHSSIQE
B7: Mothers against decapentaplegic homolog 4 (Homo sapiens), Q13485 (parent)
chain: B1 chain
partner: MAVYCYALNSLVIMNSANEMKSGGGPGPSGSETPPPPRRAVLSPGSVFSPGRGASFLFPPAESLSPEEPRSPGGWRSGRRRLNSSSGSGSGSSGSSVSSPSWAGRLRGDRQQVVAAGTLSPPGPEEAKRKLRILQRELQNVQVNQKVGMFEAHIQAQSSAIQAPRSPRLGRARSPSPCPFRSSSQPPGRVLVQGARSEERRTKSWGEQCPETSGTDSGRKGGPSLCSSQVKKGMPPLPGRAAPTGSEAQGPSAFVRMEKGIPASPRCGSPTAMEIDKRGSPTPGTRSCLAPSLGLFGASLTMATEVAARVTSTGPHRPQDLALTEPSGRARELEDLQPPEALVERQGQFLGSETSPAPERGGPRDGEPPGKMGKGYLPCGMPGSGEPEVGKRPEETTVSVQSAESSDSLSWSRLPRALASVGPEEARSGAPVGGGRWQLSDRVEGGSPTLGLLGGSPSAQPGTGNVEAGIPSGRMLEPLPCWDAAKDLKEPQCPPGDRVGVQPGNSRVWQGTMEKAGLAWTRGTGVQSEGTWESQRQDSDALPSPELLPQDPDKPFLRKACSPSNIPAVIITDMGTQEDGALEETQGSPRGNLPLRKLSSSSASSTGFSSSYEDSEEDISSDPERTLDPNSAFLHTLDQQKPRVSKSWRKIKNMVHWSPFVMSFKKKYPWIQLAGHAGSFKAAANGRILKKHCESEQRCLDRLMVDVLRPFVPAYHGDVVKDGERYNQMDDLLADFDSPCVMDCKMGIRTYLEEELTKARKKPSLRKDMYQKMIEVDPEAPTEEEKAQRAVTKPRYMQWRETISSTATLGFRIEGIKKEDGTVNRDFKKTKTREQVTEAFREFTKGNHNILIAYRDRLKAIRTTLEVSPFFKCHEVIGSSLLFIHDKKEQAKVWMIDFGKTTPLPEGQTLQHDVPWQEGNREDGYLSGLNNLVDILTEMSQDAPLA

Variants of: B1
Details: with ikkb_human IKBKB

Variant | effect of a mutation on the interaction
D351H | with no effect

Variants of: B1
Details: with ikkb_human IKBKB
Remark: another data set of the same source

Variant | effect of a mutation on the interaction
G386D | with no effect

Variants of: B1
Details: with ikkb_human IKBKB
Remark: another data set of the same source

Variant | effect of a mutation on the interaction
R361C | with no effect

Variants of: B1
Details: with ikkb_human IKBKB
Remark: another data set of the same source

Variant | effect of a mutation on the interaction
R361H | with no effect

Variants of: B2
Details: with ikke_human IKBKE

Variant | effect of a mutation on the interaction
D351H | with no effect

Variants of: B2
Details: with ikke_human IKBKE
Remark: another data set of the same source

Variant | effect of a mutation on the interaction
G386D | with no effect

Variants of: B3
Details: with inhba_human INHBA

Variant | effect of a mutation on the interaction
D351H | with no effect

Variants of: B3
Details: with inhba_human INHBA
Remark: another data set of the same source

Variant | effect of a mutation on the interaction
G386D | with no effect

Variants of: B3
Details: with inhba_human INHBA
Remark: another data set of the same source

Variant | effect of a mutation on the interaction
R361C | with no effect

Variants of: B3
Details: with inhba_human INHBA
Remark: another data set of the same source

Variant | effect of a mutation on the interaction
R361H | with no effect

Variants of: B4
Details: with inp4b_human INPP4B

Variant | effect of a mutation on the interaction
D351H | with no effect

Variants of: B4
Details: with inp4b_human INPP4B
Remark: another data set of the same source

Variant | effect of a mutation on the interaction
G386D | with no effect

Variants of: B4
Details: with inp4b_human INPP4B
Remark: another data set of the same source

Variant | effect of a mutation on the interaction
R361C | with no effect

Variants of: B4
Details: with inp4b_human INPP4B
Remark: another data set of the same source

Variant | effect of a mutation on the interaction
R361H | with no effect

Variants of: B5
Details: with irf2_human IRF2, P14316

Variant | effect of a mutation on the interaction
D351H | with no effect

Variants of: B5
Details: with irf2_human IRF2, P14316
Remark: another data set of the same source

Variant | effect of a mutation on the interaction
G386D | with no effect

Variants of: B5
Details: with irf2_human IRF2, P14316
Remark: another data set of the same source

Variant | effect of a mutation on the interaction
R361C | with no effect

Variants of: B6
Details: with irf4_human IRF4, Q15306

Variant | effect of a mutation on the interaction
D351H | with no effect

Variants of: B6
Details: with irf4_human IRF4, Q15306
Remark: another data set of the same source

Variant | effect of a mutation on the interaction
G386D | with no effect

Variants of: B6
Details: with irf4_human IRF4, Q15306
Remark: another data set of the same source

Variant | effect of a mutation on the interaction
R361C | with no effect

Variants of: B6
Details: with irf4_human IRF4, Q15306
Remark: another data set of the same source

Variant | effect of a mutation on the interaction
R361H | with no effect

Variants of: B7
Details: with ip3kb_human ITPKB

Variant | effect of a mutation on the interaction
D351H | with no effect

Variants of: B7
Details: with ip3kb_human ITPKB
Remark: another data set of the same source

Variant | effect of a mutation on the interaction
G386D | with no effect

Reference: IntAct's records for PubMed 35512704
